Data as given in US20210079557A1, “Methods and Compositions for Protein and Peptide Sequencing” (Google LLC, published 2021).
No end group written: not given here.

T1: argipressin peptide-oligo conjugate (synthetic, UniProt P01185 P01185:20-28, ends and bridges not checked; also: oligonucleotide conjugate, site not given here)
T1 chain: CYFQNCPRG

T2: bradykinin peptide-oligo conjugate (synthetic, also: C-terminal Cys conjugated to 3' end of DNA oligo tail)
T2 chain: RPPGFSPFRC

B1: argipressin BCS aptamer 3 (ssDNA)
DNA: GAGAGTCCACGTGCACAGATAACGAATTCGTATAGGCGCAGCATACATCGGACATACATCCTGCGTGCATCCACCTTTGCATACTTGGCGTTCTTACCACCA
modifications: 5'-phosphate
B2: argipressin BCS aptamer 2 (ssDNA)
DNA: GAGAGTTAGTCAGCAGGGATAACGAATTCGTATAGGCGCAGCATTTGATTCTGCTGCGTGCATACCCCTGTGTGTTATCCCTACTTGGCGTTCTTACCACCA
modifications: 5'-phosphate
B3: argipressin BCS aptamer 1 (ssDNA)
DNA: GAGAGTAAAGCCGATAGGATAACGAATTCGTATAGGCGCAGGATGGACTTGATAACCTTCTGCTGCGTGCCTTGATGTGCTTACTTGGCGTTCTTACCACCA
modifications: 5'-phosphate

How the values were obtained:
[1] = target: T1, argipressin peptide-oligo conjugate; assay: barcode ligation sequencing on flow cell, over 100 hits on argipressin foundations; settings: tags: C-terminal DNA oligo tail tethered to flow cell (Genscript)
[2] = target: T2, bradykinin peptide-oligo conjugate; assay: no off-target hits; settings: tags: C-terminal Cys conjugated to DNA oligo tail tethered to flow cell (Genscript)

Binder | binding result [1] | binding result [2]
B1 | binds | no binding
B2 | binds | no binding
B3 | binds | no binding
